Two molecules from article doi:10.1101/2025.09.29.679124 (bioRxiv, 2025) can be followed below.

The target of test [1] is T1, MBP-His-D53-D2 (718-1131) (rice (Oryza sativa), UniProt Q2RBP2 718-1131).
T1 sequence (looked up): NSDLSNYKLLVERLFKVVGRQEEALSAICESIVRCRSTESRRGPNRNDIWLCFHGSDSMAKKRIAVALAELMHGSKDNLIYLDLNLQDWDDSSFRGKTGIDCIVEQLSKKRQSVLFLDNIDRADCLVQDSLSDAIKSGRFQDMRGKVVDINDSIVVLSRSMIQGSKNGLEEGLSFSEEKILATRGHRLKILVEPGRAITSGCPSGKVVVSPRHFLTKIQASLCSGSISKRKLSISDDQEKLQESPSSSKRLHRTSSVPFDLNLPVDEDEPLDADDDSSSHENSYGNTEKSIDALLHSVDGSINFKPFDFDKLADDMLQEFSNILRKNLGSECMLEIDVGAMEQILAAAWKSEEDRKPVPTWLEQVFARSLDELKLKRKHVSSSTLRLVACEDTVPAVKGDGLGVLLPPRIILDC
In words: pull-down.

Test [2] concerns the target T2, MBP-tagged D3 (2-720) co-expressed with untagged ASK1 (rice (Oryza sativa) | Arabidopsis, UniProt Q5VMP0 2-720; Q39255 1-160).
T2 sequence (looked up) 1: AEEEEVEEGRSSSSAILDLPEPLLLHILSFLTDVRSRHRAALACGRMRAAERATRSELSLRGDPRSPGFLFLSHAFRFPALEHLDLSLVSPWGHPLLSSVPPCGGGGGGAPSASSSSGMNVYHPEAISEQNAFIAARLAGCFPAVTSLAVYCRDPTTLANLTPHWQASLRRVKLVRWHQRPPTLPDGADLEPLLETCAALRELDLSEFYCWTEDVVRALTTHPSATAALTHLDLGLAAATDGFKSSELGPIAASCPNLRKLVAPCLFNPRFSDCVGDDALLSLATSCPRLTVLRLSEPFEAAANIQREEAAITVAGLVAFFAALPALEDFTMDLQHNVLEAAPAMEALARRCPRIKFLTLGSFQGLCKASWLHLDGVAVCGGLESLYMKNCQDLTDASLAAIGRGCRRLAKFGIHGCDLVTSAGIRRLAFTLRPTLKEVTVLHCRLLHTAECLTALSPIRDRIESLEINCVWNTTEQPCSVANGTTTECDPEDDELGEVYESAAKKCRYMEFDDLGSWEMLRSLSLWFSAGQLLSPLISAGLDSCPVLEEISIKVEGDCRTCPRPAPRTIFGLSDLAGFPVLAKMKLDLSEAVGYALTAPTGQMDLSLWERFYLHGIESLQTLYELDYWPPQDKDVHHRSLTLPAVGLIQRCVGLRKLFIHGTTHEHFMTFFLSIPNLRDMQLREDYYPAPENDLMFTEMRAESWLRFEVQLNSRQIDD
T2 sequence (looked up) 2: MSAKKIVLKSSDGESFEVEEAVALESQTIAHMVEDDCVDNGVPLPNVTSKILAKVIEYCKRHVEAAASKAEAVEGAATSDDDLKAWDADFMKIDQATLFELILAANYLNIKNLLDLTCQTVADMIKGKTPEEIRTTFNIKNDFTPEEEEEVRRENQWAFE
In words: pull-down.

B1: GST-D14 (50-318) (receptor, rice (Oryza sativa), UniProt Q10QA5 50-318, looked up)
chain: APSGAKLLQILNVRVVGSGERVVVLSHGFGTDQSAWSRVLPYLTRDHRVVLYDLVCAGSVNPDHFDFRRYDNLDAYVDDLLAILDALRIPRCAFVGHSVSAMIGILASIRRPDLFAKLVLIGASPRFLNDSDYHGGFELEEIQQVFDAMGANYSAWATGYAPLAVGADVPAAVQEFSRTLFNMRPDISLHVCQTVFKTDLRGVLGMVRAPCVVVQTTRDVSVPASVAAYLKAHLGGRTTVEFLQTEGHLPHLSAPSLLAQVLRRALARY
Regarding B1, the binding result in test [1] is reported as “binds”.

B2: Glutathione-S-transferase (GST)-tagged D14L (receptor, rice (Oryza sativa), UniProt Q10J20 1-271, looked up)
chain: MGIVEEAHNLRVVGEGKRGVIVLAHGFGTDQSVWKHLVPHLVADYRVVLFDTMGAGPTNPDYFDFSRYATLEGYALDLLAILQELRVASCIYVGHSVSAVIGAIASISRPDLFSKLVLLSASPRYLNDVDYYGGFEQEDLDELFEAMGSNYKAWCSGFAPLCVGGDMESVAVQEFSRTLFNIRPDIALSVAQTIFQSDVRSLLPLVTVPCHIVQSTKDLAVPVVVSEYLHKHLGGDSIVEVMPSEGHLPQLSSPDIVIPVLLRHIQHDIAV
On to B2, for which, in test [2], the binding result is given as “binds”.
